Source: US20180258163A1 (Chugai, published 2018)
Changes are numbered by the printed parent chain. Names may count otherwise.

B1: Ab1H-P920/Ab1L (antibody, human IgG1, kappa, name in EU numbering)
heavy: QVQLVESGGGLVQPGGSLRLSCAASGFTLSNHDMTWVRQAPGKGLEYVSIINTYGNHWYANWASGRFTISRDNSKNTVYLQIDSLRAEDTATYYCARETHHGSSGIDHWGQGTLVTVSSASTKGPSVFPLAPSSKSTSGGTAALGCLVKDYFPEPVTVSWNSGALTSGVHTFPAVLQSSGLYSLSSVVTVPSSSLGTQTYICNVNHKPSNTKVDKKVEPKSCDKTHTCPPCPAPELLGGDSVFLFPPKPKDTLMISRTPEVTCVVVDVSHEDPEVKFNWYVDGVEVHNAKTKPREEQYNATYRVVSVLTVLHQDWLNGKEYKCKVSNKALPRPIEKTISKAKGQPREPQVYTLPPSREEMTKNQVSLTCLVKGFYPSDIAVEWESNGQPENNYKTTPPVLDSDGSFFLYSKLTVDKSRWQQGNVFSCSVMHEALHNHYTQKSLSLSP
light: DIQMTQSPSSVSASVGDRVTITCQASESIYSGLAWYQQKPGQPPKLLIYDHSTLASGVPSRFSGSGSGTEYALTISSLQPEDFATYYCQHADYAHHSDNVFGGGTKVEIKRTVAAPSVFIFPPSDEQLKSGTASVVCLLNNFYPREAKVQWKVDNALQSGNSQESVTEQDSKDSTYSLSSTLTLSKADYEKHKVYACEVTHQGLSSPVTKSFNRGEC
notes: copies: 2 + 2
B2: Ab1H-P927/Ab1L (antibody, human IgG1, kappa, name in EU numbering)
heavy: B1 heavy with E296R, R332A
light: B1 light
notes: copies: 2 + 2
B3: Ab1H-P924/Ab1L (antibody, human IgG1, kappa, name in EU numbering)
heavy: B1 heavy with N317R, R332A
light: B1 light
notes: copies: 2 + 2
B4: Ab1H-P941/Ab1L (antibody, human IgG1, kappa, name in EU numbering)
heavy: B1 heavy with H270R, R332A
light: B1 light
notes: copies: 2 + 2
B5: Ab1H-P926/Ab1L (antibody, human IgG1, kappa, name in EU numbering)
heavy: B1 heavy with Q297R, R332A
light: B1 light
notes: copies: 2 + 2
B6: Ab1H-P929/Ab1L (antibody, human IgG1, kappa, name in EU numbering)
heavy: B1 heavy with P293R, R332A
light: B1 light
notes: copies: 2 + 2
B7: Ab1H-P930/Ab1L (antibody, human IgG1, kappa, name in EU numbering)
heavy: B1 heavy with A289R, R332A
light: B1 light
notes: copies: 2 + 2
B8: Ab1H-P925/Ab1L (antibody, human IgG1, kappa, name in EU numbering)
heavy: B1 heavy with Y298R, R332A
light: B1 light
notes: copies: 2 + 2
B9: Ab1H-P928/Ab1L (antibody, human IgG1, kappa, name in EU numbering)
heavy: B1 heavy with E295R, R332A
light: B1 light
notes: copies: 2 + 2
B10: Ab1H-P931/Ab1L (antibody, human IgG1, kappa, name in EU numbering)
heavy: B1 heavy with N288R, R332A
light: B1 light
notes: copies: 2 + 2
B11: Ab1H-P935/Ab1L (antibody, human IgG1, kappa, name in EU numbering)
heavy: B1 heavy with G283R, R332A
light: B1 light
notes: copies: 2 + 2
B12: Ab1H-P932/Ab1L (antibody, human IgG1, kappa, name in EU numbering)
heavy: B1 heavy with H287R, R332A
light: B1 light
notes: copies: 2 + 2
B13: Ab1H-P934/Ab1L (antibody, human IgG1, kappa, name in EU numbering)
heavy: B1 heavy with V284R, R332A
light: B1 light
notes: copies: 2 + 2
B14: Ab1H-P921/Ab1L (antibody, human IgG1, kappa, name in EU numbering)
heavy: B1 heavy with R332A, P333R
light: B1 light
notes: copies: 2 + 2
B15: Ab1H-P939/Ab1L (antibody, human IgG1, kappa, name in EU numbering)
heavy: B1 heavy with D272R, R332A
light: B1 light
notes: copies: 2 + 2
B16: Ab1H-P937/Ab1L (antibody, human IgG1, kappa, name in EU numbering)
heavy: B1 heavy with E274R, R332A
light: B1 light
notes: copies: 2 + 2
B17: Ab1H-P923/Ab1L (antibody, human IgG1, kappa, name in EU numbering)
heavy: B1 heavy with Q313R, R332A
light: B1 light
notes: copies: 2 + 2
B18: Ab1H-P938/Ab1L (antibody, human IgG1, kappa, name in EU numbering)
heavy: B1 heavy with P273R, R332A
light: B1 light
notes: copies: 2 + 2
B19: Ab1H-P940/Ab1L (antibody, human IgG1, kappa, name in EU numbering)
heavy: B1 heavy with E271R, R332A
light: B1 light
notes: copies: 2 + 2
B20: Ab1H/Ab1L016 (antibody, human IgG1, kappa)
heavy: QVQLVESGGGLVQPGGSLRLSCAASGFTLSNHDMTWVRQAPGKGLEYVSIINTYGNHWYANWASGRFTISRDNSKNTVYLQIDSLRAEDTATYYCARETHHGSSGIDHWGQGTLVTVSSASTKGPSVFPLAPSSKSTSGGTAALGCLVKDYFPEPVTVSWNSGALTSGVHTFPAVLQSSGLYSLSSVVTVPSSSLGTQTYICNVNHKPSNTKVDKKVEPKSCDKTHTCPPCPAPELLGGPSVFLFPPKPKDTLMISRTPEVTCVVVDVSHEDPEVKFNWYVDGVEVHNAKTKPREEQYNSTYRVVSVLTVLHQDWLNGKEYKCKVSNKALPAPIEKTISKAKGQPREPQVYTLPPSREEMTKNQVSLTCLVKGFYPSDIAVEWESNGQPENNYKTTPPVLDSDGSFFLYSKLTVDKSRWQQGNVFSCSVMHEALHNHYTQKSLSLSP
light: B1 light with Q24R, E27R, Q37R
notes: copies: 2 + 2
B21: Ab1H/Ab1L002 (antibody, human IgG1, kappa)
heavy: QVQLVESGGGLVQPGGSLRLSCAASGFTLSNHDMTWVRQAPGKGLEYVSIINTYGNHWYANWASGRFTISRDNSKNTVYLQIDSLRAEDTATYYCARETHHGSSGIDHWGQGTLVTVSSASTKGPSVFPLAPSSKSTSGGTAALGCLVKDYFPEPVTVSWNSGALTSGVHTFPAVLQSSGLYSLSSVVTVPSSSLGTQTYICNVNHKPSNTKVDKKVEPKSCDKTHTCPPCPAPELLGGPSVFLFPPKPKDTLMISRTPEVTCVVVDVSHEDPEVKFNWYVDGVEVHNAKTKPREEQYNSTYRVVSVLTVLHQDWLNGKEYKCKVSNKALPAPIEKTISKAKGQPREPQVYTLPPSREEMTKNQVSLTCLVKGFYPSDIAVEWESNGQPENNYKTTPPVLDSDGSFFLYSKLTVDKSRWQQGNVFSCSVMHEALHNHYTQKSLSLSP
light: B1 light with Q24R, E27Q
notes: copies: 2 + 2
B22: Ab1H/Ab1L003 (antibody, human IgG1, kappa)
heavy: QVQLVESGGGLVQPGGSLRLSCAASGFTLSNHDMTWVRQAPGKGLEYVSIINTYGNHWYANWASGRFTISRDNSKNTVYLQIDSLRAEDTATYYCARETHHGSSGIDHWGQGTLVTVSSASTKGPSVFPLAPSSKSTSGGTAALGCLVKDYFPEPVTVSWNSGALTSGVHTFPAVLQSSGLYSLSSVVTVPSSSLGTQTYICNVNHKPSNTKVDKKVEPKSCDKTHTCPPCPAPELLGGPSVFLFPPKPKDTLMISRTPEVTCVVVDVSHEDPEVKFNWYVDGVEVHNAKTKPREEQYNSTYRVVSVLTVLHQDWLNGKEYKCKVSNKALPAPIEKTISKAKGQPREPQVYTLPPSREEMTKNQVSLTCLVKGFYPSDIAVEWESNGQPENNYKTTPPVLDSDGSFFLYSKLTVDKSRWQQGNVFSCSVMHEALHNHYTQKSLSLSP
light: B1 light with Q24R, E27R
notes: copies: 2 + 2
B23: Ab1H/Ab1L001 (antibody, human IgG1, kappa)
heavy: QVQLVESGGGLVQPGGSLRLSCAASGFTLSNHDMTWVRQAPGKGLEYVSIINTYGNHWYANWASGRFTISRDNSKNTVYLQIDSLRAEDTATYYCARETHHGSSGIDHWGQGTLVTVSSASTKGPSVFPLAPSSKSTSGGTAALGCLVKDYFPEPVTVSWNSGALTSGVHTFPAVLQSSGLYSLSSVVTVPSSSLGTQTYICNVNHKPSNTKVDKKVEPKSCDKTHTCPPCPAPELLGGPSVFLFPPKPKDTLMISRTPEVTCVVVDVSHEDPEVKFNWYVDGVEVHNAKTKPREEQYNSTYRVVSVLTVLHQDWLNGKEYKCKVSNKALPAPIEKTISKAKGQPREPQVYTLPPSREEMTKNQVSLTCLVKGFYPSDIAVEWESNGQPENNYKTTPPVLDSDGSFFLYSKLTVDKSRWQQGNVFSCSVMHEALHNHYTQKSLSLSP
light: B1 light with G16K
notes: light chain = Ab1L with G16K (Kabat); also called Ab1L001T; copies: 2 + 2
B24: Ab1H/Ab1L014 (antibody, human IgG1, kappa)
heavy: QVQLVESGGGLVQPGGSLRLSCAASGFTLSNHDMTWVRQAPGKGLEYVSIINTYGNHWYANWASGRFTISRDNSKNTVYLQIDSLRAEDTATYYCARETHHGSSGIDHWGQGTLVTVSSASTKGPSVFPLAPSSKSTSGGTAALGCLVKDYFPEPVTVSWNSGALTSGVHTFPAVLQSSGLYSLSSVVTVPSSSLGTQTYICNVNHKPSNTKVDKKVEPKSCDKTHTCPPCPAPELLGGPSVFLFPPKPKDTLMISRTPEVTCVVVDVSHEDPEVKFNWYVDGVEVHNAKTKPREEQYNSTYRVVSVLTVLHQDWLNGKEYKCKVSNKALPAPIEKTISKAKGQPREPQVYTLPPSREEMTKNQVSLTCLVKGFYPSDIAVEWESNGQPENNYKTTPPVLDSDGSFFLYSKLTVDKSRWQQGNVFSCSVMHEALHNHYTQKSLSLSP
light: B1 light with S76R, Q79K
notes: copies: 2 + 2
B25: Ab1H/Ab1L013 (antibody, human IgG1, kappa)
heavy: not shown
light: B1 light with T74K, S77R
notes: copies: 2 + 2
B26: Ab1H/Ab1L010 (antibody, human IgG1, kappa)
heavy: not shown
light: B1 light with S52R, S56R
notes: copies: 2 + 2
B27: Ab1H/Ab1L011 (antibody, human IgG1, kappa)
heavy: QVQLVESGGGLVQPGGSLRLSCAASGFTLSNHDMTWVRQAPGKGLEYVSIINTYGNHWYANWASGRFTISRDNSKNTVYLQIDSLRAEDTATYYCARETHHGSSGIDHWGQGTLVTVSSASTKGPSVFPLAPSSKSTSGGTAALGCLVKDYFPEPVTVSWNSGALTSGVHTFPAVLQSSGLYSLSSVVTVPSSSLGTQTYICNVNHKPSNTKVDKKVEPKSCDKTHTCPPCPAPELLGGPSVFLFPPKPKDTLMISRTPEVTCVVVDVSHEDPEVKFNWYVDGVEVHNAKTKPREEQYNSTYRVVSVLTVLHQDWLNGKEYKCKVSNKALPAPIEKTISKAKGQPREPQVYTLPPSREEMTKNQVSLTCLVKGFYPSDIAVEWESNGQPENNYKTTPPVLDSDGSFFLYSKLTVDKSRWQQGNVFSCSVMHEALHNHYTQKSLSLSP
light: B1 light with S52K, S56K
notes: copies: 2 + 2
B28: Ab1H/Ab1L006 (antibody, human IgG1, kappa)
heavy: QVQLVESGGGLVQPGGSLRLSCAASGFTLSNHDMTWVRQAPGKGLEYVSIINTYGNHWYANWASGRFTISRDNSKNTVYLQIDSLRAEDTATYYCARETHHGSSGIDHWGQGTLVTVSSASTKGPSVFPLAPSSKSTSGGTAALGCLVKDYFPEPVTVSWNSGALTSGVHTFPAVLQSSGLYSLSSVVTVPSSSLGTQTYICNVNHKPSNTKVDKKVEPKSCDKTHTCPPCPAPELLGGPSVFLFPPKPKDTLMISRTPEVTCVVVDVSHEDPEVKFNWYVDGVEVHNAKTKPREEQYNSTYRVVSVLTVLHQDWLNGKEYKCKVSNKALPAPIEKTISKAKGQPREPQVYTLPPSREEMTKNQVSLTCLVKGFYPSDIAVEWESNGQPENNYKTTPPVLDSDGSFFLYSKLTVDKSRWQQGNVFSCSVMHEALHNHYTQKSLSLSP
light: B1 light with A25R, S26R
notes: copies: 2 + 2
B29: Ab1H/Ab1L012 (antibody, human IgG1, kappa)
heavy: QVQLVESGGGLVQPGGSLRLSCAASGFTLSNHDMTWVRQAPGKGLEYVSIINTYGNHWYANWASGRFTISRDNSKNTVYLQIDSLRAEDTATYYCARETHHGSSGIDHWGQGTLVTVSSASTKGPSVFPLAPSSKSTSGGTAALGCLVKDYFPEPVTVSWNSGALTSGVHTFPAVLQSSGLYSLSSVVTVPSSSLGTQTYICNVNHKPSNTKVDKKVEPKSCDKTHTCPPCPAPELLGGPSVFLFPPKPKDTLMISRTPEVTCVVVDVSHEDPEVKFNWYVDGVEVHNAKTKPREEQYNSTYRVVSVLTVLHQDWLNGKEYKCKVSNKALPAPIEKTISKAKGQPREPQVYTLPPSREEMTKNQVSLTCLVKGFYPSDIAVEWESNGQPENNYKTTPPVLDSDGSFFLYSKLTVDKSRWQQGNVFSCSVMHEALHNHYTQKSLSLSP
light: B1 light with S65R, T69R
notes: copies: 2 + 2
B30: Ab1H/Ab1L009 (antibody, human IgG1, kappa)
heavy: not shown
light: B1 light with L46R, Y49K
notes: copies: 2 + 2
B31: Ab1H/Ab1L008 (antibody, human IgG1, kappa)
heavy: not shown
light: B1 light with G41R, Q42K
notes: copies: 2 + 2
B32: Ab1H/Ab1L004 (antibody, human IgG1, kappa)
heavy: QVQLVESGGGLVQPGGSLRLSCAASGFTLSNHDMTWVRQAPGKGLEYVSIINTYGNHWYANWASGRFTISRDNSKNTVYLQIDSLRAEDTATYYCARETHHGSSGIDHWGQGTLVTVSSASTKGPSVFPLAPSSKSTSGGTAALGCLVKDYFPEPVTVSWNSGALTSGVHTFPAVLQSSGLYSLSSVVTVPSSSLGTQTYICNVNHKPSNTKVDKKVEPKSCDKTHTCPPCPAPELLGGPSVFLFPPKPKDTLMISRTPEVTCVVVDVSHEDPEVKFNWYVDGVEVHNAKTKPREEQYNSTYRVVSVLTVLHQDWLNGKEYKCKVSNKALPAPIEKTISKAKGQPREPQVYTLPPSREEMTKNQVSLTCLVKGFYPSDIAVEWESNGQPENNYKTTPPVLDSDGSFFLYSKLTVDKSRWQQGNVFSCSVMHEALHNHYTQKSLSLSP
light: B1 light with Q24K, E27K
notes: copies: 2 + 2
B33: Ab1H/Ab1L005 (antibody, human IgG1, kappa)
heavy: not shown
light: B1 light with A25K, S26K
notes: '526K' read as S26K; copies: 2 + 2
B34: Ab1H/Ab1L007 (antibody, human IgG1, kappa)
heavy: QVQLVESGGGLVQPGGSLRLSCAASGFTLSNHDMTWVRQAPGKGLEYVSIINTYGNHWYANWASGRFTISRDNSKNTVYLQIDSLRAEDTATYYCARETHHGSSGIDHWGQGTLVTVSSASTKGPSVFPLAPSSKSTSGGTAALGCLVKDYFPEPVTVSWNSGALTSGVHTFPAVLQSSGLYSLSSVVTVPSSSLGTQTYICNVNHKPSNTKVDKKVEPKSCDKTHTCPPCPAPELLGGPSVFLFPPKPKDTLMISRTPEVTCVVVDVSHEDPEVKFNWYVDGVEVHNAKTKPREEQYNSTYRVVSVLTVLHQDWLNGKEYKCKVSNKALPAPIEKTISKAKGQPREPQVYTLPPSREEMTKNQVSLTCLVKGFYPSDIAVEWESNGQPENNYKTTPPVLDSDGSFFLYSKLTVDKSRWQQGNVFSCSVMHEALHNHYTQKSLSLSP
light: B1 light with Q37R
notes: copies: 2 + 2
B35: Ab1H/Ab1L015 (antibody, human IgG1, kappa)
heavy: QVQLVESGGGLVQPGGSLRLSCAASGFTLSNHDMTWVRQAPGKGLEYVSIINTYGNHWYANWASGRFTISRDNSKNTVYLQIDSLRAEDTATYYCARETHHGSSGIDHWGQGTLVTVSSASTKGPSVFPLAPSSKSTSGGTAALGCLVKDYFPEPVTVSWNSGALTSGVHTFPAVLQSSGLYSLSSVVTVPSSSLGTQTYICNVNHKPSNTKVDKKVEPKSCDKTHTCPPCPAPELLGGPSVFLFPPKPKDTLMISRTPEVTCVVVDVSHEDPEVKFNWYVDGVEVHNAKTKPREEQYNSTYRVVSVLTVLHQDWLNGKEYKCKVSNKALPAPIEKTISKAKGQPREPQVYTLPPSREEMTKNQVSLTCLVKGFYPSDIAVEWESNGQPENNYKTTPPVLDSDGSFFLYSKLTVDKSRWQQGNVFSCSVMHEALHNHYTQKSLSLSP
light: B1 light with G16K, Q24R, E27R
notes: copies: 2 + 2

target: T1, soluble human FcγRIIb (human, UniProt P31994 43-217, limits assumed); experiment: SPR, Ab-IgE complex over captured hFcγRIIb, pH 7.4, 25C
T1 construct: soluble His-tagged form; also called hFcγRIIb
T1 sequence (looked up): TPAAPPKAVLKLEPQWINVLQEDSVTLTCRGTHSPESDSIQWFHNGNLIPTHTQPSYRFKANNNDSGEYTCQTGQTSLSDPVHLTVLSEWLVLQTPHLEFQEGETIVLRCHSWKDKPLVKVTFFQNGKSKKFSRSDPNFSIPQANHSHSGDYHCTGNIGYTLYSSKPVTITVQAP
Protocol: Fc region variant-containing antibody binding assays between soluble human FcγRIIb (a.k.a. “hFcγRIIb”) and antigen-antibody complexes were performed using BIACORE® T200 (GE Healthcare). Soluble hFcγRIIb was produced in the form of a His-tagged molecule using methods known in the art. An appropriate amount of an anti-His antibody was fixed onto Sensor chip CM5 (GE Healthcare) by the amine coupling method using a His capture kit (GE Healthcare) to capture hFcγRIIb. Next, an antibody-antigen complex and a running buffer (as a reference solution) was injected, and interaction was allowed to take place with the hFcγRIIb captured onto the sensor chip. 20 mM N-(2-Acetamido)-2-aminoethanesulfonic acid, 150 mM NaCl, 1.2 mM CaCl₂, and 0.05% (w/v) Tween 20 at pH 7.4 was used as the running buffer, and the respective buffer was also used to dilute the soluble hFcγRIIb. To regenerate the sensor chip, 10 mM glycine-HCl at pH 1.5 was used. All measurements were carried out at 25° C. Analyses were performed based on binding (RU) calculated from sensorgrains obtained by the measurements, and relative values when the binding amount of P600 was defined as 1.00 are shown. To calculate the parameters, the BIACORE® T100 Evaluation Software (GE Healthcare) was used.

Row | Binder | relative binding (RU), P600=1.00 [fold]
1 | B1 | 0.01
2 | B2 | 0.25
3 | B3 | 2.08
4 | B4 | 0.47
5 | B5 | -0.06
6 | B6 | 0.47
7 | B7 | -0.07
8 | B8 | -0.05
9 | B9 | 0.2
10 | B10 | 0.68
11 | B11 | -0.06
12 | B12 | 1.38
13 | B13 | 1.54
14 | B14 | -0.07
15 | B15 | -0.07
16 | B16 | 0.21
17 | B17 | 1.63
18 | B18 | -0.06
19 | B19 | -0.05

target: T1, soluble human FcγRIIb; experiment: as above; remark: another data set of the same source
Protocol: Regarding the produced Fc region variant-containing antibodies, binding assays between soluble human FcγRIIb and antigen-antibody complexes were performed using BIACORE T200 (GE Healthcare). Soluble human FcγRIIb (NCBI accession NM_004001.3) was produced in the form of a His-tagged molecule by a method known in the art. An appropriate amount of an anti-His antibody was fixed onto Sensor chip CM5 (GE Healthcare) by the amine coupling method using a His capture kit (GE Healthcare) to capture human FcγRIIb. Next, an antibody-antigen complex and a running buffer (as a reference solution) were injected, and interaction was allowed to take place with the human FcγRIIb captured onto the sensor chip. 20 mM N-(2-Acetamido)-2-aminoethanesulfonic acid, 150 mM NaCl, 1.2 mM CaCl₂, and 0.05% (w/v) Tween 20 at pH 7.4 was used as the running buffer, and the respective buffer was also used to dilute the soluble human FcγRIIb. To regenerate the sensor chip, 10 mM glycine-HCl at pH 1.5 was used. All measurements were carried out at 25° C. Analyses were performed based on binding (RU) calculated from sensorgrams obtained by the measurements, and relative values when the binding amount of Ab1H/Ab1L (original Ab1) was defined as 1.00 are shown. To calculate the parameters, the BIACORE T100 Evaluation Software (GE Healthcare) was used.

Row | Binder | BIACORE fold (relative binding, original Ab1=1.00) [fold]
20 | B20 | 1.36
21 | B21 | 1.03
22 | B22 | 1.09
23 | B23 | 1.03
24 | B24 | 1.08
25 | B25 | 1.7
26 | B26 | 0.98
27 | B27 | 1.02
28 | B28 | 1.18
29 | B29 | 0.97
30 | B30 | -0.02
31 | B31 | 1.07
32 | B32 | 1.01
33 | B33 | 0.84
34 | B34 | 1.06
35 | B35 | 1.25
